From a protein production outcome set (Wang et al. 2014)

Assay: label from the status in PepcDB records

Question: With “MMKLKKVLVLGGTRFFGKHLVEALLKDGHDVTIATRGITEDSFGSRVKRLIVDREDEKQLAERLEDKSYDIVYDNLCYSSNAATIICEVLRGKTRKYVMTSSMAVYDPAINLSEEDFNPYEYTIAYGGRNDFNYGEGKRVAEAVVFQQATFPVVAVRFPVVIGENDYTKRLQFYVEHIVREEPVAVNHLDGELSFIHEEEAGGFLAWCGMEDIEGPINACSNGVVSSREIIHFIEENTGIKPLVQEVGDHVAPYNEVTNCTLHNGKANELGFPFRELKIEIEKVLRYYIHATK” as the sequence, how does the protein production read?
Answer: failed

Question: With “MSRPDQAARRRAIAAELHVSPTFDARDEAERRIGFVADYLRTAGLRACVLGISGGIDSSTAGRLAQLAVERLRASGYDARFVAMRLPYGAQHDEADARRALAFVRADETLTVDVKPAADAMLAALAAGGLAYLDHAQQDFVLGNIKARERMIAQYAVAGARNGVVIGTDHAAESVMGFFTKFGDGGADVLPLAGLTKRRVRALARMLGADEPLVLKTPTADLETLRPQRPDEHAYGITYEQIDDFLEGKPMDDAVAETVLRFYDATRHKRALPYTMFDWPGHPA” as the sequence, how does the protein production read?
Answer: not failed

Question: For “MKSRREQSIEEAIVANYLKMMIDNVNVWPRHFLRSEDVYCKNPWTLFVTRDPIILHFGRYFFVNRSVNSGLTDGCEYGCWRIIGRDRVIKSVTTGKILGLKKVYKFCETDRKPKSVFKFLEKEKRRVRDRRIWAMEEYRFASTWKQDYVICKIRRLYPQPFDYMLAQHIRGYYK”, which protein production is on record?
Answer: failed

Question: For “MRTLILAAALALAPLSAAAQDRAQTLADIKAEIAALQGQFNDLKRELVSTGAATSGAAGGSALQRMDAMEAAIAQVTAKAESLELKINRVVSDGSNRVGDLEFRVCELEEGCDIGAIGETKPLGGEASAAPAPTPAPAPAADPAGTFAVNEKADFDRAQEVLGQGDFRTAADLFKTFAETYTGGQLTYEAHYLRGEALSRLGETANAARAYLESFSGDPDGPRAPEALLKLGRALGDLRQTPEACVTLAEVGTRFPGSPSAAEAATTMQGLGCS”, which protein production is on record?
Answer: failed

Question: With “MKKISILFIFSLILGLFVSEVSAAGPRLKKRPKHVVLVAFDGLSAVAIRNHPMPNFNRLMKEGASTLNNRSILPSSSAPNWASMFTGVGPELHGYTTWGSKTPEIPPFITNQYGRFPGLYGLLRDTHPKAELGYIYEWDGMKYLVDSLAINHFVHAPQTKDHPKGATQFAVNYLKEKKPMYCAVIFEYPDHTGHTYKWESKEYYEKLDELDGYLGEIVAAIEEAGMMDETVIILTADHGGIGTNHGGKTLNEMETPLVFYGKGVKKNYKITESTMVIDVPATEAWLLGVEPHEAWLGNPVTTAFFTK” as the sequence, how does the protein production read?
Answer: failed

Question: Which protein production does the source give for “MLIRPTLEPDITWLPDVERSAAQAFVSWPALAWLAQGDVMDCAAHRAFVEAGGSWVAQDATGRIVGFACARLADQALHLHEISVRQEAQGQGVGRRLLQQVVDAGRCAGVRELTLTTFVDVPWNAPFYARFGFEMLQESRLCERLRGILASEHAHGLLGRCAMRLNVGL” here?
Answer: failed

Question: With “MFKKGVVPSQGLRIIIVGCGKVGRTLVEQLGKEGHDITIIDKNRERISQVSNIYDVMGIAGNGASYKILQEAGIDDADLIIAVTGSDELNLLCCTIATQVGNCAAIARVRTPEYSQEAKYLRDKLGLALIINPELEAAIEMAHILHLPSSLEVTNFAHGQAQLIKYEIPEGSILDGTKLMDLGTRHHANILIGAVERDDEVTIPSGDFVLRKGDKLSFVGERRHTKEFFSHIGVNTHSVKNTLIIGGGKAAYYLAKQLISRGIKVKIIENSFERCEELSILLPDAVIINGDGTEQALLKEEGIETCQSFVPLTGIDEENIMLTLYAKQVSNAKVITKLNRITFTNVINSLDLGSVISPKYITSEAIIAYVRAKKNSMNCNIETLYHMYDSRVEAIEFFVSENSNVTDIPLRDLKLKKHLLICFINRNGKIIIPTGNDCIQKNDTVMIITTNTGFTNLQDIME” as the sequence, how does the protein production read?
Answer: failed

Question: Which protein production does the source give for “MIELDYLTIAFGGAIGAVLRYLVSRTINSLLPFSYIPLGTIIVNSVGSFFLSFLMFAAIEKVPLSKEAILFFGTGLLGAFTTFSTFTYETLSLIEESPARGVAYALANLLFAFTCAYFGMILGRGKV” here?
Answer: failed

Question: With “MAEVTGVRALTGAALDAALEDVARLRIAVFRAWPYLYDGDLDYERDYLQAYRNSDRAIVVGAFDGDRLIGASTGMPLADHADDFAAAFADSGLALDQVFYCAESVLLPDYRGHGVGHRFFDLREGHARALGFAKCAFCGVQRPADHPLKPDSYRPLDAFWRARGYEKLPGAVAHFSWKDLDQENETDKPLQFWIRDL” as the sequence, how does the protein production read?
Answer: failed

Question: Which protein production does the source give for “MNSYDETVQDIITAVGGKDNIEEVFHCVARLRFYLKDSTQLNKTILQKNSNIYDFKFENNQLQILIGSDVNKYYKALMKCINEDKDFSKAKKGNIKMSKSSDKDKQLAEQIVKLVGGKENVNSLIHCVTRLRFKLKDESKADDEAIKNLHGVMGVAHAGGQYQVIIGNNVTDIYDQVMPLLGLSSEQEVTQDDEKEGNIFSRLVALISSLFMPLLGVMTGAGMLKGLLVLFGVLGWVKQGTGTYMILNAAADALFYFLPILLGFTAGKTFKINPFVGAVTGGALVYPSMVAAATAHKAITFLGIPVNLMNYSQTMLPIVIAIWGMSWLEKGTKKIIPSSVRNLFVPLLDLMIVVPLAYIIIGPIMQTLSQWLSEASLWIYGILPVAAGFIIGGIWQGAVILGLHWAFIPVLMNNLMTNHFDPINGIMYCTLFGQVGACFAMGLKAKDKNFKEIAIPAAISGLVGITEPIIYGVTLPHKKAFAFASVGSAFGGAIAAACHAGMYTMPGGGIFGIPAFINPKGINMQFYGFLISLLVAIVVSFVLTMIFGDTVVPSAPKAKVQVKKAEFKDQAIYSPLEGTVVELKDVKDPVFSAGTIGKGIAVKPTNNEVRAPFDGKVISVFPTKHAIGLKSENGVELLIHLGIDTVNLQGKYFDSMVKDGQEIKKGDLIEKFDVQAIQEAGYDTVVPIVVTNSNNFDDVISEKKNGDKVNFGDQLLMATVEQDVNVQDSSIAKA” here?
Answer: failed

Question: Which protein production does the source give for “MGVFDKFLDIMKLNDDEYDDDDFYDDDFEDDDFDEKPHRSIFGNKKSRSDDFDDFDMDEDKHLAPSSGNKVTPMRQPAARRGVNMEVCVVKPTSVDDSREITETLLAGRTVILNLEGMDLEIAQRIIDFISGATFAISGNLQKISNYIFLVTPTNVDILEHHHHHH” here?
Answer: not failed

Question: Which protein production does the source give for “MPSENPIGKTMKSIDEQSLHNARRLFESGDIDRIEVGTTAGLQQIHRYLFGGLYDFAGQIREDNISKGGFRFANAMYLKEALVKIEQMPERTFEEIIAKYVEMNIAHPFLEGNGRSTRIWLDLVLKKNLKKVVNWQNVSKTLYLQAMERSPVNDLELRFLLKDNLTDDVDNREIIFKGIEQSYYYEGYEKG” here?
Answer: not failed

Question: With “MKKKLDRREAVRSEKKTLPWRKKRSSRGCCWRRRVATAVGEEESRRLMEKTRRDGEEEEVTSDGGSWNGKKKLYRRRRRYLGEETDRLAAEAGEEELRRLLENKRRGREEEERRRRNQIEEEERRRRRK” as the sequence, how does the protein production read?
Answer: failed

Question: For “MGNHKAALTKQVFTFASELYAYGVREVVISPGSRSTPLALAFEAHPNIKTWIHPDERSAAFFAVGLIKGSERPVAILCTSGTAAANYTPAIAESQISRIPLIVLTSDRPHELRSVGAPQAINQVNMFNNYVSYEFDMPIADDSKETINAIYYQMQIASQYLYGPHKGPIHFNLPFRDPLTPDLNATELLTSEMKILPHY”, which protein production is on record?
Answer: failed

Question: For “MTCRPALSDSHPPEPGTPSSPSFGVCGDRPLLRERGQHEVFCGLAGIIWLHRKIQDAFFLIIGSRTCAHLMQSAAGVMIFAEPRFATAVLEEQDLAGLADAQDEIDRVVARLLERRPDIRLLFLVGSCPSEVIKIDLQRAALRLSKVHGARTRVVSYSGSGLETTFTQGEDACLAALVPDLPSAAADEAPDLLVVGTLPDVVEDQFGRLFAEMGIARTAFLPPRRSTALPAIGPKTRFLLAQPFLGDTARCLEARGARRLAAPFPFGVEGTTGWLAAAAQAFGVDDLTFRRVTAPGRERAARALERQRATLEGKRVFFFPESQLEIPLARFLVRELGMEAIEIGTPYLHRAHLAEELALLPATALLSEGQDVDRQLDRCRAARPDLVVCGLGLANPLEAEGITTKWSIELVFSPIHGYEQAGDLAELFARPLLRRALLKV”, which protein production is on record?
Answer: failed

Question: For “MRLYKIGLVLLLWVFAVTAQAELRFPALSGRVVDDAQMIEPTISALLTRQLQAHEQATGEQLVVVTLPDLQGASIEEFGYQLGRHWGIGQKDKNNGALLIVARDERKLRIEVGYGLEERLTDAQASVIINQVITPAFKTGQFSKGISDGVSAMLLVLGGTPLDEPTTVYDSGDSSSQDDFVQRHPLLFIFLVLLFILVIMVAQALGLITTTSGRGGGGGGGFGGFGGGSGGGGGFSGGGGSFGGGGSSGGWLEHHHHHH”, which protein production is on record?
Answer: failed

Question: With “MSKKIFAALIVAVVATFAGYNIYQSQRAEMEMSDLAMANIEALANDGESSTETTWSCKGTVGTCGAKCGLCGTTIPKSKGTLTGSHKCSM” as the sequence, how does the protein production read?
Answer: failed
